In paper PMC4688242 (Neurobiology of disease, 2015):

B1: ADan pE (34-amino acid ADan amyloid peptide with N-terminal pyroglutamate) (peptide)
peptide: EASNCFAIRHFENKFAVETLICFNLFLNSQEKHY
modifications: N-terminal pyroglutamate (pE) in place of Glu1
B2: ADan E (34-amino acid ADan amyloid peptide with N-terminal glutamate) (peptide)
peptide: EASNCFAIRHFENKFAVETLICFNLFLNSQEKHY

Molecular target: the molecule itself
Assay: SDS-PAGE and Western blot of SDS-resistant oligomers

| Protein | binding result |
| --- | --- |
| B1 | binds |
| B2 | binds |
